According to US20200199241A1 (Chugai, published 2020):
Numbering of substitutions follows the chain as printed. Names and notes keep the numbering of the source. Read-outs that look alike come from different tables or passages of the source. Each block holds one binder with its values, some of them ahead of it.

Columns and labels:
[1] = target: T1, human FcRn (soluble human FcRn complexed with β2-microglobulin) (human, UniProt P61769 21-119, limits assumed); experiment: SPR, antibody captured by Protein L, human FcRn as analyte, pH 7.0, 25 C
T1 construct: also called hFcRn

mouse FcγRIV = target: T2, mouse FcγRIV (mouse, UniProt A0A0B4J1G0 21-203); experiment: SPR, antibody captured by Protein L, mouse FcγR as analyte, pH 7.4, 25 C
T2 construct: bought; also called mFcgRIV; mFcgR IV; the vendor's purification tag not given
T2 sequence: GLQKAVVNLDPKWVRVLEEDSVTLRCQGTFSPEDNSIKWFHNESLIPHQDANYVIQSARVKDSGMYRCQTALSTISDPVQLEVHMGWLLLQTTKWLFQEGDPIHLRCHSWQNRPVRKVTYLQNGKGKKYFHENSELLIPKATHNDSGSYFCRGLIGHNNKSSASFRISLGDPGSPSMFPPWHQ

mouse FcγRIIb = target: T3, mouse FcγRIIb (mouse, UniProt P08101 30-207, limits assumed); experiment: as above
T3 construct: bought; also called mFcgRIIb; mFcgR IIb
T3 sequence (looked up): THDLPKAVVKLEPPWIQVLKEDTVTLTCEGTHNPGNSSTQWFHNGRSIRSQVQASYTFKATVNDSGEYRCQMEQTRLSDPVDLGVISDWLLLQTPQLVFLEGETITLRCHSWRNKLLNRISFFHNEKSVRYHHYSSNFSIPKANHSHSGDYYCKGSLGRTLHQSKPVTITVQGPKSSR

human FcγRIIb [2] = target: T4, human FcγRIIb (human, UniProt P31994 43-217, limits assumed); experiment: SPR (Biacore), antibody captured, FcγR as analyte
T4 construct: also called FcγIIB
T4 sequence: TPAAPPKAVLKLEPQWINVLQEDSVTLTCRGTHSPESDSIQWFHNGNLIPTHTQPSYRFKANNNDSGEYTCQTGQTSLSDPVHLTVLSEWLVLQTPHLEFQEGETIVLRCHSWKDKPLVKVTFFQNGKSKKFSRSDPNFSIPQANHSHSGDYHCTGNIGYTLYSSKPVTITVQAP

human FcγRIIb [3] = target: T4, human FcγRIIb; experiment: SPR (Biacore), antibody captured, FcγR as analyte; remark: listed apart in the source
human FcγRIIb [4] = target: T4, human FcγRIIb; experiment: SPR (Biacore); ratio against IgG1
human FcγRIIb [5] = target: T4, human FcγRIIb; experiment: SPR (Biacore); ratio against IgG1; remark: listed apart in the source

Kd [1]: 94 nM
BINDING AMOUNT (RU) (mouse FcγRIV): 138 RU
BINDING AMOUNT (RU) (mouse FcγRIIb): -2.5 RU
B1: antibody with VH3-IgG1-F424 heavy chain and L(WT)-CK light chain (antibody)
heavy: QVQLQESGPGLVKPSETLSLTCAVSGHSISHDHAWSWVRQPPGEGLEWIGFISYSGITNYNPSLQGRVTISRDNSKNTLYLQMNSLRAEDTAVYYCARSLARTTAMDYWGEGTLVTVSSASTKGPSVFPLAPSSKSTSGGTAALGCLVKDYFPEPVTVSWNSGALTSGVHTFPAVLQSSGLYSLSSVVTVPSSSLGTQTYICNVNHKPSNTKVDKKVEPKSCDKTHTCPPCPAPELLGGPKVFLFPPKPKDTLMISRTAEVTCVVVDVSHEDPEVKFNWYVDGVEVHNAKTKPREEQYNSTYRVVSVLTPLHQDWLNGKEYKCKVSNKALPAPIEKTISKAKGQPREPQVYTLPPSRDELTKNQVSLTCLVKGFYPSDIAVEWESNGQPENNYKTTPPVLDSDGSFFLYSKLTVDKSRWQQGNVFSCSVLHEALHYHYTQKSLSLSP
light: not shown
notes: S239K/P257A/V308P/M428L/N434Y; copies: 2 + 2

Kd (human FcγRIIb [2]): 1100 nM
Kd (human FcγRIIb [3]): 1100 nM
relative KD for FcγRIIb (KD for IgG1/KD for each variant) (human FcγRIIb [4]): 4.8
relative KD for FcγRIIb (KD for IgG1/KD for each variant) (human FcγRIIb [5]): 4.8
B2: IgG1-v1 (antibody)
heavy: not shown
light: DIQMTQSPSSLSASVGDRVTITCRASQDISSYLNWYQQKPGKAPKLLIYYTSRLHSGVPSRFSGSGSGTDFTFTISSLQPEDIATYYCQQGNTLPYTFGQGTKVEIK
notes: IL6R-G1d with P238D (EU numbering); also called IL6R-G1d-v1

Kd (human FcγRIIb [2]): 450 nM
relative KD for FcγRIIb (KD for IgG1/KD for each variant) (human FcγRIIb [5]): 12
B3: IgG1-v5 (antibody)
heavy: B1 heavy with P240D, K241S, A259P, S269E, P310V, L330F, L430M, Y436N
light: B2 light
notes: IL6R-G1d with P238D/S267E/L328F (EU numbering); The L chain is not restated for v5; also called IL6R-G1d-v5; P238D/S267E/L328F
